Experimental data published in a protein production outcome set (Wang et al. 2014).

Assay: label from the status in PepcDB records
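Also: failed if final PepcDB status was selected cloned or expressed and not failed if soluble or beyond.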

Sequence	protein production
MQFIPPILCKMNGRRQLNMHQQTKRLITISMLSAVAFILMFIKFPIPFLPPYLTLDFGDVPALLATFILGPVAGLIVEFIKNLLNFLFNIGDPVGPVANFLAASSFLLTAYFVTKYKDKIKSQIVGLSIATVVMTIVLSILNYFVLLPLYGMIMNLSDVVENVKIVIVSGVIPFNIIKGIVISIIFILLYNRLKNVLPK	failed
MNQSIIFTEQLTWDVQLSAIHFTAQQQGMVIDCYIGQKVLEHLAAEKINNSEQALSLFEQFRFDIEEQAEKLIEQEAFDVQGHIQVERVD	not failed
MGRYILGITVLVTVVVAPLEAGLSSVALLALLAAFGIGVQVIAPWFIPLVRSVDTPDDQTTETLNRLRERAGLTVRDVRVLDTEQEGTANVIVRGAPGYRRLFVTSTFLDVFDDEMATALLAVQAGRQEARVRARLIGGLLIALVPVFAALADIGPLWPLVGASLGLLVVTLWVTRRGVRAADDYAAEGVGPDTVADALERYADVHDMEPPRRRLANPFSKSPPLGNRIDRLREQAGE	failed
MEKPDIQRLTNFLIVYTKTLLGAGTYTARVAKCVGRIAEVYGYEININFFFHHITLNVVDMDDNSIQRTYVIPNHHAHVNFKLIFDLSALSWAIYDHKYDLEKAKVVFEQISQQKKHSYLLNLLFVSMANSAFCRLFGGDFGAGNLVFFATFVGLLLRYILTKAKIDLRIQYILCSFISSWFVFFGLDMGYTNTSDVALGSSILYLIPGVFFINSVIDILKDHILMGLSRIISVAILICCIALGIYMTLSISDFGILR	failed
MLGNKVVSSPLVAALVALAVRLLAHNFSHHIHLPYHFGITTSKTGSEIWKEAVFWKQQFGVVPAFLTTVGPWFMEYIPPASSDAYVIFLCLCDALTVYIVSRWPSAKPQLTYALFVLNPIMALLPMLESLAPLEHVLLAVILECCRKRRIHPWLIFAARLLAPLLGFHFIAIIVALWYPVGTPCPKIALVGVALCTACIGGCGMLYLRWWGEHVERTSLYSPPDNGVMWYVRLLIMAAFHRSMEVGQIELPAVLTLIFSTGVPCEKEAAAETMKDGGAIPGDRRLLVTLLAICFSKLFCEHVILADYMITVFFLYSLLEVKGRGGFKSMLDRVRGLNIFLPICTLLLGVPLQYAFYTGWVMWDMANPNWVFFPQVAFVTGGGLFLLAFVNSLVDAMKEECVAGITKEKQA	failed
MKILVTGGTGLIGRHFISAFNHKYQFTVLTRNTQKAQLYLPKNIEFIEQLPEQNYFDVIINLAGEPIIDKRWSRAQKENICQSRWNITEKIVEMIARATDKPSCLISGSAIGYYGETGAVSTHEDAKVTHSDFAHTLCQKWEELALKAKEHCRVVLLRTGIVLASDGGALEKMRLPFSLGLGGKLGNGQQYMSWIHIDDMIHAIHFSVQIKCIEGAINCTSPKAITNEVFTKALGKEVNRPTWFSVPAFVLNILMGQGAELLLTSQNIYPQKLLSHGFHFNHSDIEHALADLMTES	failed
MAYAHVFASLTISTISLRRFLPRLHRNHSVKPNSRIICNLKLNYSAGKFREMGLSRSVELDQFITSEEEEGEAEEIGEGFFEAIEELERMTREPSDILEEMNHRLSSRELQLMLVYFAQEGRDSWCTLEVFEWLKKENRVDEEIMELMVSIMCGWVKKLIEDECNAHQVFDLLIEMDCVGLKPGFSMMDKVIALYCEMGKKESAVLFVKEVLRRRDGFGYSVVGGGGSEGRKGGPVGYLAWKFMVDGDYRKAVDMVMELRLSGLKPEAYSYLIAMTAIVKELNSLGKTLRELKRFARAGFVAEIDDHDRVLIEKYQSETLSRGLQLATWAVEEGQENDSIIGVVHERLLAMYICAGRGPEAEKQLWKMKLAGREPEADLHDIVMAICASQKEVNAVSRLLTRVEFMGSQRKKKTLSWLLRGYVKGGHFEEAAETLVSMIDSGLHPEYIDRVAVMQGMTRKIQRPRDVEAYMSLCKRLFDAGLPKTNLNDLRTSVSSYVFLKLSESEGESKAGGRNKNHRGKIVMELEDPTMADSTIKLTVKFGGKSIPLSVSPDCTVKDLKSQLQPITNVLPRGQKLIFKGKVLVETSTLKQSDVGSGAKLMLMASQGLHQGEGPILKEASIRPISRTVVSDKVDQRKPSVLVDKNRTDRWKATGVIALAQANLKEIPEEVWDCGSGVRVLDISENFIKEVPAKISSFGSMQKLFLQGNGLSDESIQWEGIASLKRLMLLSISHNNLTVLPSAMGSLTSLRQLDVTNNKLTSLPNELGLLTQLEILKANNNRITSLPESIGNCSFLMEVDLSANIISELPETFTKLRNLKTLELNNTGLKTLPSALFKMCLQLSTLGLHNTEITVEFLRQFEGYDDFDERRRTKHQKQLDFRVVGSGQFDEGADKSW	failed
MGAAKNIWALANAEDAANDAEQIPYSSFVVDTSLPLPLMIPRIIELCKDLFKNWGELDDSLFSVERVSGGITNLLLKVSVKEDTNKEVSVTVRLYGPNTEYVINREREILAIKYLSAAGFGAKLLGGFGNGMVQSFINARTLEPSDMREPKIAAQIARELGKFHKVDIPGSKEPQLWVDILKFYEKASTLTFEEPDKQKLFETISFEELHKEIIELREFTGLLNAPVVFAHNDLLSGNFMLNDEEEKLYLIDFEYGSYNYRGFDIGNHFNEYAGYDCDYSLYPSKEEQYHFIKHYLQPDKPDEVSIAEVESVFVETDAYKLASHLYWAIWAIIQARMSPIEFEYLGYFFLRYNEYKKQKPLTFSLVTSHLSASL	failed
MKQKDFFLYAVMSVFLGMQGCASSSDIKQNVGTSEIAHTKQTLQIAGLKHCNNEGNDSIHLNPDEPLTIIVHGCFSSAGRFETLADVYGLYDQQAICFEYDDRKSLEDTSGELVAALNQLSTQNPNQDLHVIGHSQGGLVARRALTSEREDQQTVTAKKVQLTTVSSPFNGIEISSHCGITPLRILSLGIVDLICYAVTGEKYQQIPPNADFIEQPGDLVASVSQHLVIKTDERNSCRKENDKGECIEDDYVFSVNEQSNNQVDDGVNTDLVTVKAGHVEIVGNGESVPTDLINILKQKEVLVDKSGVDEQKQGYLINQLYFD	failed
MTNKRVVQTFLATSALFLAMSGMSARAQDASAPAAGAPAPSAAAPMHHHGSGFKKLDTNGDGMVSRDEAKGHRWLEDHFDEIDTNHDGQISKDELAAWHKTHAGEMRGKMQARLDAKFKAADKNGDGALTREEMQAGLPKLARHFDEIDANHDGKVTEDEIRAFMKARHDAHRAQHGTPAAAVTPGGPSATKGE	failed
MVVVTGREPDSRRQDGAMSSSDAEDDFLEPATPTATQAGHALPLLPQEFPEVVPLNIGGAHFTTRLSTLRCYEDTMLAAMFSGRHYIPTDSEGRYFIDRDGTHFGDVLNFLRSGDLPPRERVRAVYKEAQYYAIGPLLEQLENMQPLKGEKVRQAFLGLMPYYKDHLERIVEIARLRAVQRKARFAKLKVCVFKEEMPITPYECPLLNSLRFERSESDGQLFEHHCEVDVSFGPWEAVADVYDLLHCLVTDLSAQGLTVDHQCIGVCDKHLVNHYYCKRPIYEFKITW	not failed
MAGKQQERVNVEGHELTLTNLNKIIYPETGTTKAEVLEYYAAVAPFLIPAAANRPVTRKRWVNGVGTAENPGQVFFQKNLEDSAPKWIPRAAIQHSDHTNVYPMVNNLATLTWMAQIASLEIHVPQWQVDPSGKPLRPDRFVLDLDPGPGAGLPECVEVAKLARSILQDMGMDPVPVTSGSKGIHLYTGLDGTLKSEQVSAFAKELARALESDHPELVVSDMKKSLRHGKVLVDWSQNSGNKTTIVPYSLRGKAHPTVAAPRTWRELSSPSLEHLDYVAVMKRVKTGKDHFAPISERHLPPHGEDENDDDGTAGSSSGTGRSRERVVTVENRLAKYVGMRDPGKTPEPFPSSSAVSASPQSAGSSSDQPKPGDPPPPGGIFVIQEHHARRYHLDLRLEHHGVLASWALPRGIPETPDRNNLAVHTEDHPMEYANFAGVIPKGEYGAGTMTIWDRGEYTCEKWRDGKEVIATLTGEPGGGLGGTKRFALINTGQNWLIHLMKEQPGGRRGTQPAANAAAPKSAPAQPQPQPMPNYSPMLATSGTTADLRGDDWLYELKWDGIRAIITGTESRIRLMSRNGNDLTAAYPELTDRACWPDGDFVADGEIVALGKGSRPDFGRLQLRMNLVKAADIERARATVPVQLMLFDLLYDDGTDLSGLPFHERRERLSGFAERWRVGCPLHLSAVLDHDVEDLMTSAAELGLEGVMAKKADSRYVIGRRSRSWIKLKLEQSQEVVVGGWRPGAGARAGTFGALLLGIPDGDKLHYVGRVGSGFKDWQLRDIMEKLEPLAIVESPFADIPREDAAGATWVSPELVAEVTFGEWTGPGRLRHPVWRGWRPDKSAGEVTLAGS	failed
MPCDFPGCGRIFSNRQYLNHHKKYQHIHQKSFSCPEPACGKSFNFKKHLKEHMKLHSDTRDYICEF	not failed
